Measurements published in patent US20150307599A1 (GARVAN INSTITUTE OF MEDICAL RESEARCH, published 2015).
Where a chain is given by its changes, count along the chain named. The star is where a group is joined. Biotin = O=C1N[C@H]2[C@H](CS[C@H]2CCCCC(=O)*)N1; Ahx = NCCCCCC(=O)O

T1: biotin-NPY20-36 (SMILES …)
T1 construct: Captured on neutravidin or streptavidin plates
T1 peptide: {Biotin-Ahx}-YYSALRHYINLITRQRY-NH2

T2: biotin-hPP (human, N-terminal Biotin-Ahx-; C-terminal amide (-NH2))
T2 peptide: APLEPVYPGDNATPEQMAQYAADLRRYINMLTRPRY

B1: h5E12 IGHV1-46/DPK9 scFv (humanized) (scFv)
scFv: QVQLVQSGAEVKKPGASVKVSCKASGYTFTNYWMHWVRQAPGQGLEWMGNIDPSNGGTNYNEKFKSRVTMTRDTSTSTVYMELSSLRSEDTAVYYCASFAYWGQGTLVTVSSGGGGSGGGGSGGGGSTDIQMTQSPSSLSASVGDRVTITCRASGNIHNYLAWYQQKPGKAPKLLIYNAKTLADGVPSRFSGSGSGTDFTLTISSLQPEDFATYYCQHFWSPPFTFGQGTKVEIKR
notes: Humanized 5E12 scFv
B2: h5E12 IGHV1-69/DPK9 scFv (humanized) (scFv)
scFv: B1 scFv with A16S, M70I, R72A, T74E, V79A
notes: Humanized 5E12 scFv
B3: scFv-3 (human) (scFv)
scFv: EVQLLESGGGLVQPGGSLRLSCAASGFRFSDEDMGWVRQAPGKGLEWVSSIYGPSGSTYYADSVKGRFTISRDNSKNTLYLQMNSLRAEDTAVYYCAKDDVGTGTFDYWGQGTLVTVSSGGGGSGGGGSGGGGSTDIQMTQSPSSLSASVGDRVTITCRASQYIYYALNWYQQKPGKAPKLLIYDYSALQSGVPSRFSGSGSGTDFTLTISSLQPEDFATYYCQQSYYHPATFGQGTKVEIKR
notes: Human scFv from the Garvan-2 phage library; Whole entry used as named
B4: scFv-7 (human) (scFv)
scFv: EVQLLESGGGLVQPGGSLRLSCAASGFRFDYEDMGWVRQAPGKGLEWVSAIASDGDSTYYADSVKGRFTISRDNSKNTLYLQMNSLRAEDTAVYYCAKIYYDGAYRVFDYWGQGTLVTVSSGGGGSGGGGSGGGGSTDIQMTQSPSSLSASVGDRVTITCRASQSISSYLNWYQQKPGKAPKLLIYSASYLQSGVPSRFSGSGSGTDFTLTISSLQPEDFATYYCQQYSMLPTTFGQGTKVEIKR
notes: as for B3
B5: scFv-6 (human) (scFv)
scFv: EVQLLESGGGLVQPGGSLRLSCAASGFRFSAEDMGWVRQAPGKGLEWVSSIASAGASTYYADSVKGRFTISRDNSKNTLYLQMNSLRAEDTAVYYCAKHMYSYAIFDYWGQGTLVTVSSGGGGSGGGGSGGGGSTDIQMTQSPSSLSASVGDRVTITCRASQDIADALNWYQQKPGKAPKLLIYAASSLQSGVPSKFSGSGSGTDFTLTISSLQPEDFATYYCQQGYVHPPTFGQGTKVEIKR
notes: as for B3
B6: mouse 5E12-B7 scFv PSE2 (scFv, V domains shown, not shown: small tags and cut ends)
VH: QVQLQHPGTEVVKPGASVKLSCKASGYTFTNYWMHWVKQRPGQGLEWIGNIDPSNGGTNYNEKFKSKATLTVDKSSSTAYMQLSSLTSEDSAVYYCASFAYWGQGTLVTVSS
VL: DIQMTQSPASLSASVGETVTITCRASGNIHNYLAWYQQKQGKSPQLLVYNAKTLADGVPSRFSGSGSGTQYSLKISSLRPEDFGSYYCQHFWSPPFTFGSGTKLEIK
notes: also called 5E12 (mouse); mouse 5E12 PSE2

Target: T1, biotin-NPY20-36
Experiment: phage ELISA, scFv on phage, anti-M13 detection
Protocol: Overnight cultures were grown from clones transformed with the humanized 5E12-B7 scFv genes pHEN1 vector. Phages were then produced through overnight incubation after rescue with KM13 helper phage. In order to analyze antigen binding, ELISA plates were coated with 500 ng/mL biotin-NPY₂₀₋₃₆ on 10 ug/mL neutravidin; 10 ug/mL neutravidin only; 10 ug/mL Protein A or 10 ug/mL Protein L
ELISA plates were blocked with 5% skim milk/PB ST then incubated with phage culture supernatant which had also been blocked with 5% skim milk/1% Tween (final concentration). Binding of scFv-phage to wells was detected with Peroxidase conjugated anti-M13 secondary antibody.

Binder | binding result
B1 | binds
B2 | binds

Target: T1, biotin-NPY20-36
Experiment: soluble scFv ELISA, biotin-NPY20-36 on streptavidin
Protocol: (§1) In order to analyze antigen binding, ELISA plates were coated with 1 ug/mL biotin-NPY₂₀₋₃₆ on 10 ug/mL streptavidin […] streptavidin only.
(§2) Plates were then blocked with 5% skim milk/PB ST and incubated with supernatant from the IPTG-induced cultures. Binding of soluble scFv to wells was detected with peroxidase conjugated anti-cMyc.

Binder | binding result
B3 | binds
B4 | binds
B5 | binds

Target: T1, biotin-NPY20-36
Experiment: soluble scFv ELISA, biotin-NPY20-36 on streptavidin, anti-cMyc detection
Protocol: as §1, §2

Binder | binding result
B6 | binds

target: biotin-NPY (N-terminal Biotin-Ahx-; C-terminal amide (-NH2)); experiment: BLI (ForteBio Blitz), biotinylated peptide on streptavidin sensor, scFv in solution
Protocol: (§3) Affinity of the purified scFv for biotin-NPY, biotin-hPYY and biotin-hPP was determined using a Blitz system (ForteBio). Streptavidin Biosensors were blocked for 1 hr with 1% BSA in PBS. Biosensors were then coupled for 120 seconds with 1 μM solutions of biotinylated peptide followed by a 30 second baseline measurement. The sensors were then transferred to varying dilutions of purified scFv and association was measured for 300 seconds. The sensors were then transferred to PBS and dissociation was measured for 900 seconds. Global fits were determined for association and dissociation curves at two concentrations of each scFv against each of the peptides. All curves were referenced with peptide-only and scFv-only runs.

Binder | Kd
B4 | 9250 nM
B1 | 905 nM
B2 | 142 nM
B5 | 177 nM
B6 | 22.1 nM

target: biotin-hPYY (human, N-terminal Biotin-Ahx-; C-terminal amide (-NH2)); experiment: as above
Protocol: as §3

Chain of biotin-hPYY (human, N-terminal Biotin-Ahx-; C-terminal amide (-NH2)) (peptide, as listed by the source): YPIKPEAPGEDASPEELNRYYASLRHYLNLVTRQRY

Binder | Kd
B3 | 1910 nM
B1 | 1040 nM
B2 | 140 nM
B5 | 3240 nM
B6 | 32.9 nM

Target: T2, biotin-hPP
Experiment: as above
Protocol: as §3

Binder | max signal (nm)
B3 | < 0.2 nm
B4 | < 0.2 nm
B1 | < 0.2 nm
B2 | < 0.2 nm
B5 | < 0.2 nm
